Results reported in patent publication US20020022718A1, “Genes identified as required for proliferation of E. coli” (priority 1999, published 2002).

B1: EcXA162: antisense clone insert to E. coli yjgV (nucleic acid, listed as Escherichia coli)
antisense: AAAGGTTCGGCAAAAGCCATAACCTTTTCGTCAGCTTTGGCCGGATAAGGGACACATTGCGACGTTTCGACCATTTTATAACGGGTAAAACCACCATCAACATGAGGGAAATACATGGCACTGCCAAAAAAACGCATATCTGTACACTGATTCTCGTTATGTTCAATGCAGTATTTGCAGTGACCGCACGGTTTAGACGGATTAATGGCTACCGTTTGCCCTTCATGTAATTCTGA
B2: EcXA163: antisense clone insert to E. coli yidC (nucleic acid, listed as Escherichia coli)
antisense: GAAGAGATGTTCAGGTTTTCGTTATCGGCAATGGTATCGAACTTGTATTTCTCATACTTCTCGTCAGGCGTGGAGTACGCCGCGCCACGGAA
B3: EcXA164: antisense clone insert to E. coli glpC (nucleic acid, listed as Escherichia coli)
antisense: TGTCGACATTCAGCACTTCCGGGTATTCGTCGCGCAGGGCAAATGTACAGGTTGAGGAGGTG
B4: EcXA165: antisense clone insert to E. coli ybeJ (nucleic acid, listed as Escherichia coli)
antisense: ACTTATCAAACCATTTTTCCGCTTCACCGGAGGTCTGCACCTGAGCGATGGTGTCATCCATCAGCTTTTTGA
B5: EcXA166: antisense clone insert to E. coli yihE (nucleic acid, listed as Escherichia coli)
antisense: AAACGCATGGCGCGTAAAGGTTCAATCAGTCCGATTTCAGCGGTGTCGAACTCGCTAAATTCTTCA
B6: EcXA167: antisense clone insert to E. coli gatB (nucleic acid, listed as Escherichia coli)
antisense: TATAGGGGNCTATTTCATTAACCCGACACTGGATTAATTCAACAGGAATATTATGATTCTGACACAACTCTTTAATTTCTTCCGCCGCCATCGTAGAGGTCGCAACCGCGCCTCCGCAAGCGACAATAATCTTGCGTTTCATA
modifications: misc_feature (1)...(143): n = A,T,C or G
notes: antisense clone insert to E. coli gatB
B7: EcXA168: antisense clone insert to E. coli b1721 (nucleic acid, listed as Escherichia coli)
antisense: GAGGAACCGTGTGACACACAAAGGGTGATTATTTTCCATTGCGGCGTATAATCCTGGCTCACCATCATGTATTTTCATGGCTAAAATACTCATCACCAGTTTTTTGTTTAAAAGCTCTTGTGCTATTGGAGTGGTTAATGCATTCAGAAAGATATCGATTATTTCATCGAATCCATACAACATGGAGATATAAAGTCCAGGTGTTTCGTT
B8: EcXA169: antisense clone insert to E. coli rpsE (nucleic acid, listed as Escherichia coli)
antisense: AGAGCTGTGAAGGAGAAAATACGACCACCTTTAACGGTTTTAGATACGCGGTTTACCGCGATCAGCTTTTCCTGCAGTTCGCCAGCTTGTTTTTCGATGTGAGCCATCTTACACCTCT
B9: EcXA171: antisense clone insert to E. coli b0876 (nucleic acid, listed as Escherichia coli)
antisense: AGCGCCGGTAACGCCCGTTAAATGTTCTCGTTCGGCTTCCCGATCGTTATTCAACAGGCTGCGTACCGTAGCGGCATATTTCTTCCCTGCTTCATCGCCATC
B10: EcXA173: antisense clone insert to E. coli yhhJ (nucleic acid, listed as Escherichia coli)
antisense: GCCACGCCCAGCATAAACAGCGGGATCGAGCCTTCAATCGGTACGCCCAGTACACCTTTCACCATCAGCACCAGCGATAATCC
B11: EcXA174: antisense clone insert to E. coli endA (nucleic acid, listed as Escherichia coli)
antisense: GCCNGGCGGGAACCGACATGTTCCCACTCTACGCCGGCTGGCGCGGTTTTCATTTTTGCGCACCTGATAGCCGCACGATTGCAGATCAACAACGCCTTTTTTG
B12: EcXA175: antisense clone insert to E. coli pykA (nucleic acid, listed as Escherichia coli)
antisense: TAGCTTCTTCCACATTGTCGAACTGAACGTCCAGACGGTGTTTAGAAACGTTGATGCTCGGGATTTTTTCCGCACCCAGGCAAACGCGCGCCATGGCTGCAACGGTTTCTGACGGATACTG
B13: EcXA176: antisense clone insert to E. coli yjdH (nucleic acid, listed as Escherichia coli)
antisense: TAGTTATTGGCTGTTTTGAGAATGTAATCTTCCAACTGCTTATAACTCTTCAGATGCAATAATCCGAGAATCACATGCAATTTATTCATAAATTCGTGGGATCGTTCACGAAGTGCGTCAGCATAGTTGACCAGACCGTCGAGTCGCTGCATCAGTTTACGTA
B14: EcXA178: antisense clone insert to E. coli rpsT (nucleic acid, listed as Escherichia coli)
antisense: CTGGAGATTGAGTAGATATTCTTGTTCAGAATGTATCAGCCCGATGGTTCTACGATTCTTAAGCCACGAAGAGTTCAGATAGTACAACGGCATGTCTCTTTTGACTATCTGGCAACCCGGCAGTGTGTTCTCTCACGCATCACAAAAGCAGCAGGCATAAAAAAACCCGCTTGCGCGGCTTTTTCACAAAGCTTCAGCAAATTGGCGATTAAGCCAGTTTGTTGATCTGTGCAGTCAGGTTAGCCTTATGACGTGCAGCTTTGTTTTTGTGGATCAAACCTTTAGCAGCCTGACGGTCCACGATCGGTTGCATTTCGTT
B15: EcXA179: antisense clone insert to E. coli valV (nucleic acid, listed as Escherichia coli)
antisense: CGAACCAACGACCCCCACCATGTCAAGGTGGTGCTCTAACCAACTGAGCTATGAACGCAACGTTGTAGGTGACAACGGGGACGAATATTAGCGGCAGAGTGGGAAGGTGGCAAGAGGCAAAACGTAATTTTCTGCGCTATTTCGACCGTTTGCAGAGCTTTTAAGCAAATTGGCTATATTTTGTTGATTTGCAAGGGTGATTTTTATTCAGGATCGCATTTACATCTGATACAACCC
B16: EcXA180: antisense clone insert to E. coli yjcF (nucleic acid, listed as Escherichia coli)
antisense: TGTGACAGAGTGGTTATCGTTAATCAGGCAAAGAGGGAAAAACATATTATTTAAACCATTATAGCGCATAAAATATCCTTATAATTAACAAGAAAGAAAAGGCATATTCTCTGCATTATCATTTTCTACGACTGTCAAAAATCGCTCATTTTTTAATGAGTTTATTTGTTTAATATTATGGGAAAAGGTGATGCATTTGGGAGAGGAAGAGTATTCCCCGGTCAGACGACCGGGGAAGGGG
B17: EcXA181: antisense clone insert to E. coli ppc (nucleic acid, listed as Escherichia coli)
antisense: CCCGGCTGGGTTTTTTCAAGTTTACGCAGGGGTGCGGGCGATCACTTCCGGGTTGCTGGCAGCTTCGCCTTTCGGCGAAATGCTGTGGT
B18: EcXA182: antisense clone insert to E. coli tktA (nucleic acid, listed as Escherichia coli)
antisense: TCGCGAACACCGTAGTGGATGTAGTTACCCGCAGCATCTTCGTTGATTGCTTTAGAACCAGACCACAGGGTCAGGTTAGACGGCGCCAGGTCAGCAGAACCGCCGAGGAATTCCGGCAACAGCGGACCGAACGCTTCGAT

system: Klebsiella pneumoniae; test: Growth inhibition by induced E. coli antisense RNA in Klebsiella pneumoniae; format: cell-based; design: key: +: a positive in Table V below means that at least 10 fold more cells were required to observe a colony on the induced plate than on the non-induced plate; −: If there was no effect of antisense RNA expression in a microorganism, the clone is minus in Table V below; conditions: antisense RNA expression induced with IPTG, serial dilution plating
Outline: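 An E. coli antisense fragment (b3052 portion), or other E. coli-inhibitory antisense clones, was expressed in each species on IPTG induction (1 mM). Serial 10-fold dilutions were spotted on selective agar with or without IPTG overnight. The score is the log difference in maximal colony-forming dilution, induced vs uninduced (0 = no effect; positive = at least 10-fold).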

Molecule | Sensitivity of K. pneumoniae to antisense nucleic acid (growth inhibition, induced vs. uninduced)
B1 | −
B2 | −
B3 | −
B4 | −
B5 | −
B6 | −
B7 | −
B8 | −
B9 | −
B10 | −
B11 | −
B12 | −
B13 | −
B14 | −
B15 | −
B16 | −
B17 | −
B18 | −
